What was measured:
[1] = Leptin sensitivity study in mice; assay type: in vivo, mouse; conditions: for food intake: after administration of leptin
Procedure: To determine leptin sensitivity, 9- to 13-week-old mice, matched for similar body weight at both day 4 and day 0, were individually caged and body weight and food intake were measured once daily (5:30 pm) throughout the experiment. For the first 7 days, mice were injected intraperitoneally twice daily (12:00 pm and 6:00 pm) with PBS to establish a baseline of weight change and food intake. […] Body weight and food intake was measured once a day during the experiment.

[2] = test system: hypothalamic Stat3; assay: Phospho-Stat3 immunohistochemistry of hypothalamus after leptin; assay type: in vivo, mouse; conditions: wild-type mice, leptin 1.67 μg/g body weight peripheral
Procedure: After overnight fasting, brains of wild-type and PRMT2−/− mice treated with or without mouse leptin (1.67 μg/g body weight) for 90 min were removed immediately after decapitation, frozen in 2-methylbutane with a bed of crushed dry ice for 6 sec. 16-μm thick coronal sections were cut on a cryostat at −20° C. and were thaw-mounted on slides (K•D Medical Inc., Columbia, Md.). Sections were fixed with acetone for 10 min at 4° C. and then incubated in methanol for 30 min at −20° C. After treatment with 0.3% H2O2 in methanol for 30 min at room temperature to block endogenous peroxidase, sections were blocked in Tris-buffered saline (TBS)-Ca (100 mM Tris-HCl, pH 7.4, 150 mM NaCl, 1 mM CaCl2) containing 10% normal goat serum and 3% bovine serum albumin (BSA) and incubated with a rabbit anti-pStat3 (pY705) diluted in the same blocking solution as previously described above overnight at 4° C. On the next day sections were washed three time with TBS-Ca, incubated with a biotinylated secondary goat antibody in TBS-Ca containing 1% BSA for 1 hr at room temperature and then treated with ABC solution (Vector laboratories, Inc., Burlingame, Calif.) for 1 hr. In a final step, the signal was developed by DAB solution (Vector laboratories), giving a brown precipitate, dehydrated and mounted using Permount (Sigma-Aldrich). […]

[3] = test system: hypothalamic POMC and NPY mRNA; assay: Leptin treatment, hypothalamic POMC and NPY mRNA by real-time PCR; assay type: in vivo, mouse; conditions: for weight loss: leptin 0.5 μg/g body weight
Procedure: Mice in the 8-12 week of age allowed free access to chow and water were intraperitoneally injection for 3 days with either PBS or recombinant mouse leptin (Sigma) at a dose of 0.5 μg/g body weight twice a daily (9:00 am and 7:00 pm). Hypothalamus was isolated from the mice at 6 hr after leptin treatment and snap-frozen. Total hypothalamic RNA was isolated using Trizol (Invitrogen) according to the manufacturer's instructions. Total RNA was treated with ribonuclease-free deoxyribonuclease (DNase) I for 30 min using a commercially available kit (Invitrogen) to eliminate contamination of genomic DNA. The RNA samples were reverse transcribed with TaqMan Reverse Transcription Reagents (Applied Biosystems, Foster City, Calif.) and subjected to automated fluorescent RT-PCR on an ABI PRISM 7700 Sequence Detection System (Applied Biosystems). All TaqMan probes were labeled with the reporter fluorescein at the 5′-end and with the quencher tetramethylrhodamine at the 3′-end. The following oligonucleotides derived form the mouse POMC and NPY were synthesized and used as primers and probes for Real-time PCR: POMC (sense, 5′-[…]-3′ (SEQ ID NO:42), antisense, 5′-[…]-3′ (SEQ ID NO:43), probe, 5′-6FAM-[…]-TAMRA-3′, SEQ ID NO:44); NPY (sense, 5′-[…]-3′ (SEQ ID NO:45), antisense, 5′-[…]-3′ (SEQ ID NO:46) probes, 5′-6FAM-[…]-TAMRA-3′ (SEQ ID NO:47)). TaqMan Rodent GAPDH Control Reagents (Applied Biosystems) were used as a control primers and probe for each template. Each predicted RT-PCR product spanned an intron/exon junction. The reactions were incubated for 2 min at 50° C., followed by 10 min at 95° C., and then 40 cycles of 15 sec at 95° C. and 1 min at 60° C. Each RT-PCR reaction was performed in triplicate in a final volume of 20 μl and assessed by the comparative Ct (ΔΔCt) method (Applied Biosystems, ABI Prism 7700 Users Bulletin #2).

[4] = test system: Stat3; assay: Leptin-stimulated Stat3 immunoprecipitation and immunoblotting (methylation, PRMT-2 association); assay type: cell-based, mouse; conditions: leptin 100 nM
Procedure: Immunoprecipitation of STAT3 was performed as follows. Cells treated with or without 100 nM mouse leptin for selected times were washed with phosphate buffered saline and lysed in Nonidet P-40 (NP-40) buffer (20 mM Tris-HCl, pH 8.0, 150 mM NaCl, 25 mM EDTA, 1.0% Triton-X, 0.1% SDS, 10% glycerol, 100 mM NaF, 100 mM Na3P2O7, 1.0% deoxycholic acid, 1 mM Na3VO4, 1× protease inhibitors cocktail; Roche Diagnostic Corp., Indianapolis, Ind.) or RIPA buffer (50 mM Tris-HCl, pH 8.0, 150 mM NaCl, 1% NP-40, 0.5% Na-deoxycholate, 0.1% SDS, 1× protease inhibitors cocktail). After the lysates were incubated to solubilize proteins for 30 min at 4° C., and before they were centrifuged at 15,000 rpm for 10 min at 4° C., the supernatants were rocked with either polyclonal anti-STAT3 antibodies (1:2,000) or monoclonal anti-Flag antibodies for 14 hr at 4° C., and then with protein G agarose for 3 hr at 4° C. For in vitro stimulation, the supernatants from extracted tissue homogenates were rocked with 2 μg polyclonal anti-IRS-1 antibody, and then protein G agarose for 3 hr at 4° C. The beads were washed three times with lysis buffer without proteinase inhibitors, solubilized in 15 μl 3×SDS-polyacrylamide gel electrophoresis (PAGE) buffer (187.5 mM Tris-HCl, 6% SDS, 30% glycerol, 150 mM dithiothreitol, 0.3% bromophenol blue, pH6.8), and subjected to the immunoblotting.
Immunoblotting was performed by boiling samples for 5 min at 95° C. followed by centrifugation for 1 min at 4° C. Aliquots of the supernatant were subjected to 7.5, 10% or 4-15% SDS-PAGE. Proteins in the gel were transferred to a nitrocellulose membrane by electroblotting. The membranes were treated with either anti-pTyr, anti-STAT3, anti-phospho STAT3, anti-α-metR, anti-IRS-1, anti-Flag, anti-phospho IRS-1, anti-arginine (mono- and di-methyl), or anti-β-actin antibodies followed by incubation with secondary antibodies conjugated with HRP. Immunoreactive proteins were detected either by ECL or by ECL plus system (Amersham Pharmacia Biotech). In some cases, bands were quantified using the NIH Image software (Image J version 1.2; National Institutes of Health, Bethesda, Md.). The figures are representative of 3 experiments.

[5] = molecular target: T1, GST-Stat3 (Mus musculus, UniProt P42227); assay: In vitro methylation assay of GST-Stat3; assay type: biochemical; conditions: Flag fusion protein from transfected HEK293 cells, [3H]-AdoMet
T1 construct: The same region with the Arg31→Ala mutant was generated from the wild-type pGEX6P-3 STAT3 construct; made in house; host or cells: E. coli (BL21 (DE3); Top10 One Shot)
T1 sequence (P42227 1-131 limits assumed): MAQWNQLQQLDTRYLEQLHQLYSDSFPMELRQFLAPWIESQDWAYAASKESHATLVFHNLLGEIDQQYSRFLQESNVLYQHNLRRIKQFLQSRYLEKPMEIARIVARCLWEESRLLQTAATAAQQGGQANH
Procedure: 293 cells were transiently transfected with expression vectors encoding Flag-tagged wild-type or mutant mouse PRMT2. After incubation for 48 hr, cells were lysed with 500 μl of RIPA buffer and 1.8 mg of 293 cell lysates was incubated with 40 μl of Anti-Flag M2 Affinity Gel (Sigma) for 3 hr at 4° C. Immune complexes were washed three times with lysis buffer without proteinase inhibitor and subjected to in vitro methylation reaction. Mouse fibroblasts were grown to 80% confluence on a 10 cm plate. Cells were washed and scraped off the plate into 500 μl of PBS (pH 7.4), and were lysed by sonication. After centrifugation at 15,000 rpm for 10 min at 4° C., the supernatants were used as the enzyme source. In vitro methylation reactions were performed by adding the immune complexes or cell lysates to 0.64 μg Histone and/or 1 μg of GST, GST-STAT3 or GST-STAT3 Arg31→Ala31 using 2 μCi of the methyl donor S-adenosyl-1[methyl-3H]methionine ([3H]-AdoMet) (Amersham Biosciences) in a final volume of 35 μl. The reactions were incubated for 1 hr at 4° C. and were terminated by addition of 3×SDS-loading buffer. […]

B1: leptin: recombinant mouse leptin (Sigma-Aldrich Inc.) (protein, UniProt P41160 22-167, looked up)
Leptin: VPIQKVQDDTKTLIKTIVTRINDISHTQSVSAKQRVTGLDFIPGLHPILSLSKMDQTLAVYQQVLTSLPSQNVLQIANDLENLRDLLHLLAFSKSCSLPQTSGLQKPESLDGVLEASLYSTEVVALSRLQGSLQDILQQLDVSPEC
- food intake ([1]; PRMT2−/− mice): ~92%
- weight change ([1]; PRMT2−/− mice, leptin 0.1 μg/g): continuously lost weight for the duration of the study
- food intake ([1]; wild-type mice): did not alter food intake
- weight change ([1]; wild-type mice, leptin 0.1 μg/g peripheral injection, for 5 days): -0.158 g
- time of peak tyrosine phosphorylation of hypothalamic Stat3 [2]: 45 min
- higher level of hypothalamic POMC mRNA compared with leptin-treated wild-type mice ([3]; PRMT2−/− mice, leptin 0.5 μg/g): ~90%
- hypothalamic NPY mRNA expression ([3]; PRMT2−/− mice, leptin 0.5 μg/g): significantly reduced
- weight loss ([3]; PRMT2−/− mice): -1.0 ± 0.2 g
- increase of hypothalamic POMC mRNA compared with untreated mice ([3]; wild-type mice, leptin 0.5 μg/g): ~53%
- weight loss ([3]; wild-type mice): -0.59 ± 0.29 g
- PRMT-2 co-precipitated with STAT3 ([4]; GT1-7 cells): enhanced that amount PRMT-2 that co-precipitated with STAT3
- Stat3 methylation ([4]; GT1-7 cells): remarkably increased at 5 min and sustained for 60 min
- Stat3 methylation ([4]; PRMT2−/− VSMC): increased Stat3 methylation was not observed
- Stat3 methylation ([4]; wild-type VSMC): evoked a transient methylation of Stat3 at 10 min

B2: PRMT2-Flag: Flag-tagged wild-type mouse PRMT2 fusion protein purified from transfected HEK293 cells (protein)
chain: MEAPGEGPCSESQVIPVLEEDPVDYGCEMQLLQDGAQLQLQLQPEEFVAIADYTATDETQLSFLRGEKILILRQTTADWWWGERAGCCGYIPANHLGKQLEEYDPEDTWQDEEYFDSYGTLKLHLEMLADQPRTTKYHSVILQNKESLKDKVILDVGCGTGIISLFCAHHARPKAVYAVEASDMAQHTSQLVLQNGFADTITVFQQKVEDVVLPEKVDVLVSEWMGTCLLFEFMIESILYARDTWLKGDGIIWPTTAALHLVPCSAEKDYHSKVLFWDNAYEFNLSALKSLAIKEFFSRPKSNHILKPEDCLSEPCTILQLDMRTVQVPDLETMRGELRFDIQKAGTLHGFTAWFSVYFQSLEEGQPQQVVSTGPLHPTTHWKQTLFMMDDPVPVHTGDVVHGFCCVTKKSGMEKAHVCLSELGCHVRTRSHVSTELETGSFRSGGDS
modifications: left off: small tags and cut ends
notes: Flag-tagged wild-type mouse PRMT2 fusion protein purified from transfected HEK293 cells
- methylation of GST-Stat3 [5]: could methylate GST-Stat3

From US20060239990A1, “Protein Arginine N-Methyltransferase 2 (PRMT-2)” (priority 2003, published 2006)
